Experimental findings from patent publication US20210221894A1 (DRAGONFLY THERAPEUTICS, published 2021) are described below.

Test [1] deals with T1, full-length form of the extracellular portion of DLL3 expressed on transduced RPMI-8226 cells (Homo sapiens (Human), UniProt Q9NYJ7 27-492).
T1 construct: also called DLL3-D1-6; DLL3+ RPMI-8226 cells
T1 sequence: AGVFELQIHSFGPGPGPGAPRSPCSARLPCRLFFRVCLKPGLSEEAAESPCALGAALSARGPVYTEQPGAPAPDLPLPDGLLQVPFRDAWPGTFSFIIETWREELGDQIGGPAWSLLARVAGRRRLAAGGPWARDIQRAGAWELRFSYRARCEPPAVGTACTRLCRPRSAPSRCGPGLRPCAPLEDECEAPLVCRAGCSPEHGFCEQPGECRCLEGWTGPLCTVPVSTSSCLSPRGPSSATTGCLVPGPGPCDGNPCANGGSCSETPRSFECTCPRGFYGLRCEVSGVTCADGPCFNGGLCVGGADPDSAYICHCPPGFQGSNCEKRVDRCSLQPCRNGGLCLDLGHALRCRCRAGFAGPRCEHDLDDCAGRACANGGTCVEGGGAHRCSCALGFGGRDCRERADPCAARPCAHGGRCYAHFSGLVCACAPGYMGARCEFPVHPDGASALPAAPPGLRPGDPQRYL
Briefly: flow cytometry, RPMI-8226 cells transduced to express full-length extracellular DLL3, fluorophore-conjugated anti-human IgG. As for the experimental part:
Anti-DLL3 mAbs were diluted and incubated with DLL3⁺ RPMI-8226 cells. The cells were analyzed by flow cytometry and binding of a mAb was detected using a fluorophore conjugated anti-human IgG secondary antibody.

Test [2] has as its target T2, human DLL3-His (human, UniProt Q9NYJ7 27-492).
T2 construct: also called hDLL3
T2 sequence: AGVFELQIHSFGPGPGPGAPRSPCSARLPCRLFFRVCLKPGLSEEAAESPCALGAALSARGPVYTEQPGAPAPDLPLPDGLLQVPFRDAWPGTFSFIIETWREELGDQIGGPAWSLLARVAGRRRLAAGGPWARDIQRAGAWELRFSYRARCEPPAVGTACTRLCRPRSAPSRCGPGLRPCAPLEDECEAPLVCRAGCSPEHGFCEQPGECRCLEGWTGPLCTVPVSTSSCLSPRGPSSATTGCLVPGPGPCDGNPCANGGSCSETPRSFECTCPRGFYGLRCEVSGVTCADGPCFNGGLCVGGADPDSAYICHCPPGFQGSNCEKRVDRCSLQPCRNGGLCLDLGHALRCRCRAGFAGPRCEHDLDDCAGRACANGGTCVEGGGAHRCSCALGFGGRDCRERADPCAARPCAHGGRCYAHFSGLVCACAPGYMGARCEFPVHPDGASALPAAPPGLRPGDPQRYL
Briefly: SPR (Biacore 8K), 37 C, antibody captured on anti-human Fc, DLL3-His 0.411-300 nM injected, 1:1 fit. An excerpt:
The kinetics of binding of different humanized variants and parental murine 5E7 antibody to human DLL3-His was studied by Surface Plasmon Resonance using a Biacore 8K instrument. Briefly, anti-hFc and anti-mFc IgG proteins were covalently immobilized onto different channels of CMS chip to allow simultaneous analysis of human and murine antibodies. m5E7 was captured on the anti-mouse Fc channel and humanized variants were captured on the anti-human Fc channel at a desired capture level of […] in HBS-EP+ buffer supplemented with 0.1% BSA. Three buffer blanks and human DLL3-His (analyte) at concentrations 0.411-300 nM (in three fold dilutions) were injected over the surface with captured murine or humanized 5E7 for 300 second association time and let dissociate for 600 second at a flow rate of 30 μL/min. The surfaces were subjected to regeneration with three 20-second pulses of 10 mM glycine pH 1.70 at a flow rate of 100 μL/min between every concentration of analyte. The experiment was conducted at 37° C. Data were double referenced and a 1:1 fit model was applied to the sensorgrams in the Biacore Insight Evaluation software.
The kinetic parameters of human DLL3-His binding to murine and humanized variants of 5E7 antibody variants were calculated and shown in Table 39.
In general terms: In SPR one partner is held on a chip, and binding of the other changes the refractive index at the surface.

The target of test [3] is T3, recombinant human DLL1 (human, UniProt O00548 18-540, limits assumed).
T3 sequence (looked up): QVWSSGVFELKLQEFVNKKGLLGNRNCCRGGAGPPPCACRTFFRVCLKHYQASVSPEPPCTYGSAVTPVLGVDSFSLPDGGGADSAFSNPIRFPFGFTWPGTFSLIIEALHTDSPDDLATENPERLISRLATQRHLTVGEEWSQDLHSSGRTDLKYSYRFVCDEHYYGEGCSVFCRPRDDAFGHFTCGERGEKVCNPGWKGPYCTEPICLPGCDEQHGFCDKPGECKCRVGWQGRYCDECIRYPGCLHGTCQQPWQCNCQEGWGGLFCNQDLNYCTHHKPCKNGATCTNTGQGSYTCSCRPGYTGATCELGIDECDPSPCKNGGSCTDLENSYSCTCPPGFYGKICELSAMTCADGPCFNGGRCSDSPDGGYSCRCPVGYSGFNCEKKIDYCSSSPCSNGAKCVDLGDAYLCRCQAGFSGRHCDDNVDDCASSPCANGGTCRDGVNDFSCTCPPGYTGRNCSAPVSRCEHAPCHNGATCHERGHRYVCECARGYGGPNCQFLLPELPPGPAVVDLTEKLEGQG
Briefly: ELISA, plate-bound recombinant human DLL1 (1 µg/mL), anti-mouse IgG-HRP/TMB, % of positive control max. As for the experimental part: (§1) To investigate the binding of anti-DLL3 antibodies to human DLL3, wells of high binding flat-bottom plates were coated with recombinant human DLL3 diluted to 0.5 μg/ml. To assess cross-reactivity of the antibodies to DLL1/DLL4, which are closely related family members to DLL3, plates were coated with recombinant human DLL1 diluted to 1 μg/ml, or human DLL4 diluted to 0.5 μg/ml. […] Binding was detected using anti-mouse IgG-HRP and 3,3′,5,5′-Tetramethylbenzidine (TMB) substrate. Signals were normalized to the corresponding positive control antibody.
(ELISA stands for enzyme-linked immunosorbent assay.)

For test [4], the target named is T4, recombinant human DLL3 (ELISA coat) (human, UniProt Q9NYJ7 27-492).
T4 sequence: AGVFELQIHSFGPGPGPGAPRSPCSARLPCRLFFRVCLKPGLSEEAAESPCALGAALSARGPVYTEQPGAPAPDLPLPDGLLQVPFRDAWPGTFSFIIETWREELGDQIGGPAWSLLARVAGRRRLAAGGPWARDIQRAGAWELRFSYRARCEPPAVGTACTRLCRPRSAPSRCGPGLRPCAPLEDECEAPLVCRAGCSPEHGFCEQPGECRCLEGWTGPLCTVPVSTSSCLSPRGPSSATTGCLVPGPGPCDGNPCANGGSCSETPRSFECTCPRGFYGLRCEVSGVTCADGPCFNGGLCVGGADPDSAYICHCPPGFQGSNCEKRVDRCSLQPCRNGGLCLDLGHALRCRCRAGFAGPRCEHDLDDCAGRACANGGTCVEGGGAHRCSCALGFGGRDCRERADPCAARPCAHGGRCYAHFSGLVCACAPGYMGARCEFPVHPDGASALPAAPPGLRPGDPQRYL
Briefly: ELISA, plate coated with recombinant human DLL3 0.5 µg/ml, anti-mouse IgG-HRP. As for the experimental part: as §1
Table 38 lists the calculated EC₅₀ based on the binding data from FIG. 24.

Test [5] concerns the target T5, extracellular domain (ECD) of human DLL3 (AdipoGen Life Sciences) (human, UniProt Q9NYJ7 27-492).
T5 construct: Bought and further purified by size exclusion chromatography; also called hDLL3 ECD; DLL3 ECD
T5 sequence: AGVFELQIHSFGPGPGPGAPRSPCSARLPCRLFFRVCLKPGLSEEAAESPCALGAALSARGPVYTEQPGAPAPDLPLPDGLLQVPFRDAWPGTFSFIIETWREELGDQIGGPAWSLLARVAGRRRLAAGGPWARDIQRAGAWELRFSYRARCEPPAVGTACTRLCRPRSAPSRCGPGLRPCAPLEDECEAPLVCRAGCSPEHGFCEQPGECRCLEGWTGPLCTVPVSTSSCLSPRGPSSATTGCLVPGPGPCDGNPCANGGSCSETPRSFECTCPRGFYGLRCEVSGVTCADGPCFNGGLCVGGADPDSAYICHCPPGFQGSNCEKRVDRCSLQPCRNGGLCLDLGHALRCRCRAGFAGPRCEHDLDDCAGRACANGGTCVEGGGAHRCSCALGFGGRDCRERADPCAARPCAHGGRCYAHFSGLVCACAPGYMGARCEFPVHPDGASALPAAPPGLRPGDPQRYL
Briefly: SPR (Biacore 8K), 37 C, antibody captured on anti-mouse Fc, DLL3 ECD injected, 1:1 fit. The source says:
The binding kinetics of different anti-DLL3 antibodies to recombinant proteins of different domains of human DLL3 were studied by surface plasmon resonance (SPR) using a Biacore™ 8K instrument. These anti-DLL3 antibodies were produced from mouse hybridomas, and each included a heavy chain variable region and light chain variable region described herein. Briefly, antibodies recognizing human IgG Fc and antibodies recognizing mouse IgG Fc were immobilized on different channels of a Biacore™ 8K chip to allow simultaneous analysis of human and murine anti-DLL3 antibodies. Murine anti-DLL3 antibodies were captured on the anti-mouse Fc channel of the Biacore chip. The human anti-DLL3 antibody from Stemcentrx (San Francisco, Calif.) was used as a control and was captured onto anti-human Fc channel of the Biacore™ chip. Different concentrations of DLL3 ECD, DLL3 N-terminal domain, EGF2-6, EGF3-6, EGF4-6, or EGF5-6 domains of DLL3 were injected. Experiments were performed at 37° C. Biacore™ 8K evaluation software was used for all data analysis. To obtain kinetic rate constants double-referenced data were fit to a 1:1 interaction model using Biacore™ 8K Evaluation software (GE Healthcare, Marlborough, Mass.). The equilibrium binding constant KD was determined by the ratio of binding rate constants kd/kₐ.
Table 36 lists the calculated binding kinetics (KD). […] Stemcentrx anti-DLL3 antibody was used as a control.

B1: chimeric protein of murine 5E7 variable regions and human IgG1/Igκ constant regions (antibody, V domains shown)
VH: EVQLQQSGAELVRPGASVKLSCTASGFNIKDDYIHWVKQWPEQGLEWIGWIDSENGDTEYASKFQGKATMTADTSSNTAYLQLSGLTSEDTAVYYCTTSSYYSYDLFVYWGQGTLVTVSA
VL: DVLMTQTPLTLSVPIGQPASISCKSSQSLLHSNGKTYLNWLLQRPGQSPKLLIYLVSKLESGVPDRFSGSGSGTDFTLKISRVEAEDLGVYYCLQTTHLYTFGGGTKLEIK
notes: VH cloned onto human IgG1 CH1-CH2-CH3, VL onto human constant kappa
Take B1: the “EC50 (read off the curve)” value in test [1] is approximately 3 nM.

B2: humanized anti-DLL3 antibody h5E7 (antibody, V domains shown)
VH: QVQLVQSGAEVKKPGASVKVSCKASGFNIKDDYIHWVRQAPGQGLEWMGWIDSENGDTEYASKFQGRVTITADTSANTAYMELSSLRSEDTAVYYCATSSYYSYDLFVYWGQGTLVTVSS
VL: DVQMTQSPSSLSASVGDRVTITCKSSQSLLHSNGKTYLNWLQQKPGQAPKLLLYLVSKLESGVPSRFSGSGSGTDYTLTISSLQPEDFATYYCLQTTHLYTFGQGTKLEIK
notes: Expressed as IgG1 mAb: human IgG1 CH1-CH2-CH3 and human constant kappa
In the case of B2, the “EC50 (read off the curve)” value in test [1] is approximately 7 nM. In test [2], this molecule gave an equilibrium dissociation constant (Kd) of 8.72 nM, a koff of 0.00697 s⁻¹ and a kon of 799000 M⁻¹ s⁻¹.

B3: anti-DLL3 antibody clone 9E6 (antibody, V domains shown)
VH: QLQLVQSGPELMRPGETVKISCKASGYTFTTYGMNWVKQAPGKGLKWVGWINTYSGVPTYADDFKGRFAFSLESSASTAFLQINNLKDEDTATYFCARFGNYGFDCWGQGTTLTVSS
VL: DIVMTQSPSSLSVSAGEKVTMSCKSSQSLLNSGNQKNYLAWYQQKPGQPPKLLIYGASTRESGVPDRFTGSGSGTDFTLTISSVQAEDLAVYYCQNDHIYPYTFGGGTKLEIK
notes: Murine antibody from a mouse hybridoma
As to B3, the binding result in test [3] is on record as “no binding”. For the same molecule, in test [4], the half-maximal effective concentration (EC50) came out at 0.45 nM. In test [5], this molecule showed a Kd of 5.11 nM, a koff of 0.00208 s⁻¹ and a kon of 408000 M⁻¹ s⁻¹.

Broadly, the EC50 (read off the curve) is the concentration at which the effect is half-maximal. Read a high EC50 (read off the curve) as a less potent agent. As a reminder, the Kd is a measure of binding affinity in units of concentration. Low readings indicate higher affinity, high ones lower affinity. Broadly, the koff is the first-order rate constant of dissociation. Lower therefore signals slow dissociation. What is called kon is the second-order rate constant of association. The low end stands for slower complex formation, the high end for faster complex formation. In general, EC50 refers to the concentration giving half of the maximal effect.
